Experimental findings from the supplement of paper PMC10567573 are described below.

Sequences and labels used below:
B1: BRF1 (parent)
chain: CTACGSVLEDNIIVSEVQFVESSG
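Also: lentivirally expressed fusions sorted by FACS into six bins by GFP to DsRed ratio, PSI derived from sequencing read proportions per bin multiplied by bin number.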

In the data set the parent is B1. Put plainly: protein stability index of a GFP-peptide fusion (GPS, HEK-293T) (PSI 1-6); higher = more stable. As to conditions: c terminus: a fixed tail appended.
Regarding CTACGSVLLDNIIVSEVQFVESSG [E9L], the protein stability index is 2.24.
The figure for CTACGSVLDDNIIVSEVQFVESSG [E9D] is 3.55; for CTACGSVLQDNIIVSEVQFVESSG [E9Q] it is 2.99.
For CTACGSVLPDNIIVSEVQFVESSG [E9P] the value was 3.75; for CTACGSVLMDNIIVSEVQFVESSG [E9M], 2.57.
For CTACGSVLCDNIIVSEVQFVESSG [E9C] the value was 2.31; for CTACGSVLKDNIIVSEVQFVESSG [E9K], 3.55.
With CTACGSVLFDNIIVSEVQFVESSG [E9F], the protein stability index turned out to be 2.67.
For CTACGSVLGDNIIVSEVQFVESSG [E9G], the protein stability index was found to be 2.16.
In the case of CTACGSVLADNIIVSEVQFVESSG [E9A], the protein stability index was 3.03.
The figure for CTACGSVLIDNIIVSEVQFVESSG [E9I] is 2.08.
For CTACGSVLHDNIIVSEVQFVESSG [E9H] the value was 2.32; for CTACGSVLNDNIIVSEVQFVESSG [E9N], 2.85; for CTACGSHLEDNIIVSEVQFVESSG [V7H], 2.58.
CTACGSFLEDNIIVSEVQFVESSG [V7F]: the protein stability index was 2.33.
Regarding CTACGSILEDNIIVSEVQFVESSG [V7I], the protein stability index was determined as 2.56.
For CTACGSWLEDNIIVSEVQFVESSG [V7W] the value was 2.53.
In the case of CTACGSNLEDNIIVSEVQFVESSG [V7N], the protein stability index is 2.94.
For CTACGSGLEDNIIVSEVQFVESSG [V7G] the value was 2.8.
For CTACGSALEDNIIVSEVQFVESSG [V7A] the value was 3.8; for CTACGSQLEDNIIVSEVQFVESSG [V7Q], 2.96.
In the case of CTACGSPLEDNIIVSEVQFVESSG [V7P], the protein stability index worked out at 3.64.
For CTACGSDLEDNIIVSEVQFVESSG [V7D] the value was 3.44; for CTACGSTLEDNIIVSEVQFVESSG [V7T], 3.86.
The figure for CTACGSMLEDNIIVSEVQFVESSG [V7M] is 2.72; for CTACGSKLEDNIIVSEVQFVESSG [V7K] it is 4.22.
For CTACGSSLEDNIIVSEVQFVESSG [V7S] the value was 2.85.
For CTACGSYLEDNIIVSEVQFVESSG [V7Y], the protein stability index turned out to be 2.37.
The figure for CTACGSCLEDNIIVSEVQFVESSG [V7C] is 2.64.
The figure for CTACGSRLEDNIIVSEVQFVESSG [V7R] is 3.22; for CTACGSELEDNIIVSEVQFVESSG [V7E] it is 4.17.
For CTACGSLLEDNIIVSEVQFVESSG [V7L] the value was 2.51; for CTACGSVVEDNIIVSEVQFVESSG [L8V], 3.24.
In the case of CTACGSVQEDNIIVSEVQFVESSG [L8Q], the protein stability index was determined as 3.63.
The figure for CTACGSVMEDNIIVSEVQFVESSG [L8M] is 3.79; for CTACGSVTEDNIIVSEVQFVESSG [L8T] it is 4.19; for CTACGSVAEDNIIVSEVQFVESSG [L8A] it is 2.9.
For the variant CTACGSVSEDNIIVSEVQFVESSG [L8S], the protein stability index is 3.06.
For CTACGSVFEDNIIVSEVQFVESSG [L8F] the value was 2.37; for CTACGSVKEDNIIVSEVQFVESSG [L8K], 3.54.
For the variant CTACGSVIEDNIIVSEVQFVESSG [L8I], the protein stability index amounted to 3.44.
The figure for CTACGSVGEDNIIVSEVQFVESSG [L8G] is 3.39; for CTACGSVHEDNIIVSEVQFVESSG [L8H] it is 3.32; for CTACGSVYEDNIIVSEVQFVESSG [L8Y] it is 2.93.
Consider CTACGSVCEDNIIVSEVQFVESSG [L8C], for which the protein stability index stood at 3.29.
The figure for CTACGSVEEDNIIVSEVQFVESSG [L8E] is 3.68; for CTACGSVPEDNIIVSEVQFVESSG [L8P] it is 3.9.
For the variant CTACGSVNEDNIIVSEVQFVESSG [L8N], the protein stability index is 4.42.
The figure for CTACGSVREDNIIVSEVQFVESSG [L8R] is 3.03; for CTACGSVWEDNIIVSEVQFVESSG [L8W] it is 1.89; for CTACGSVDEDNIIVSEVQFVESSG [L8D] it is 3.65.
Consider CTACCSVLEDNIIVSEVQFVESSG [G5C], for which the protein stability index worked out at 1.78.
For CTACASVLEDNIIVSEVQFVESSG [G5A] the value was 2.86; for CTACQSVLEDNIIVSEVQFVESSG [G5Q], 2.92; for CTACHSVLEDNIIVSEVQFVESSG [G5H], 1.76.
The figure for CTACDSVLEDNIIVSEVQFVESSG [G5D] is 3.62.
As to CTACNSVLEDNIIVSEVQFVESSG [G5N], the protein stability index is 3.24.
For CTACISVLEDNIIVSEVQFVESSG [G5I] the value was 2.76.
As for CTACTSVLEDNIIVSEVQFVESSG [G5T], the protein stability index came to 2.91.
For CTACWSVLEDNIIVSEVQFVESSG [G5W] the value was 2.27; for CTACRSVLEDNIIVSEVQFVESSG [G5R], 2.4.
For CTACESVLEDNIIVSEVQFVESSG [G5E] the value was 3.21; for CTACYSVLEDNIIVSEVQFVESSG [G5Y], 1.76.
The figure for CTACLSVLEDNIIVSEVQFVESSG [G5L] is 1.75; for CTACSSVLEDNIIVSEVQFVESSG [G5S] it is 3.17; for CTACPSVLEDNIIVSEVQFVESSG [G5P] it is 3.67.
As for CTACFSVLEDNIIVSEVQFVESSG [G5F], the protein stability index was found to be 2.41.
The figure for CTACKSVLEDNIIVSEVQFVESSG [G5K] is 3.33; for CTACVSVLEDNIIVSEVQFVESSG [G5V] it is 1.33.
Turning to CTACMSVLEDNIIVSEVQFVESSG [G5M], the protein stability index was found to be 2.1.
For CTACGIVLEDNIIVSEVQFVESSG [S6I] the value was 1.27; for CTACGHVLEDNIIVSEVQFVESSG [S6H], 4.15.
For CTACGCVLEDNIIVSEVQFVESSG [S6C] the value was 2.38.
For CTACGPVLEDNIIVSEVQFVESSG [S6P] the value was 2.79; for CTACGDVLEDNIIVSEVQFVESSG [S6D], 2.94; for CTACGKVLEDNIIVSEVQFVESSG [S6K], 3.06.
Turning to CTACGEVLEDNIIVSEVQFVESSG [S6E], the protein stability index stood at 2.2.
Regarding CTACGNVLEDNIIVSEVQFVESSG [S6N], the protein stability index was 2.5.
For CTACGQVLEDNIIVSEVQFVESSG [S6Q] the value was 2.44; for CTACGRVLEDNIIVSEVQFVESSG [S6R], 2.51.
CTACGFVLEDNIIVSEVQFVESSG [S6F]: the protein stability index came to 1.24.
For CTACGMVLEDNIIVSEVQFVESSG [S6M] the value was 1.82; for CTACGAVLEDNIIVSEVQFVESSG [S6A], 2.73.
For CTACGTVLEDNIIVSEVQFVESSG [S6T] the value was 3.38; for CTACGYVLEDNIIVSEVQFVESSG [S6Y], 1.59.
Take CTACGGVLEDNIIVSEVQFVESSG [S6G]: the protein stability index is 3.35.
Consider CTACGLVLEDNIIVSEVQFVESSG [S6L], for which the protein stability index amounted to 1.39.
The figure for CTACGVVLEDNIIVSEVQFVESSG [S6V] is 2.22.
For CTAQGSVLEDNIIVSEVQFVESSG [C4Q] the value was 4.18.
The figure for CTAYGSVLEDNIIVSEVQFVESSG [C4Y] is 2.61; for CTATGSVLEDNIIVSEVQFVESSG [C4T] it is 3.21; for CTAVGSVLEDNIIVSEVQFVESSG [C4V] it is 3.83.
Turning to CTARGSVLEDNIIVSEVQFVESSG [C4R], the protein stability index was found to be 3.57.
The figure for CTASGSVLEDNIIVSEVQFVESSG [C4S] is 3.5.
